# According to patent US8563520B2, “Treatment of ocular disease with inhibitors of alpha2 macroglobulin protein” (McGill University, priority 2005, dated 2013):
# Like-named read-outs stand apart in the source and are kept apart here.
# B1: α2m: α2 macroglobulin protein injected intraocularly into normal rat eyes (protein, UniProt P06238 28-1472, looked up)
# Alpha-2-macroglobulin: SAPQKPIYMVMVPSLLHAGTPEKACFLFSHLNETVAVRVSLESVRGNQSLFTDLVVDKDLFHCTSFTVPQSSSDEVMFFTVQVKGATHEFRRRSTVLVKKKESLVFAQTDKPIYKPGQTVRFRVVSLDESFHPLNELIPLLYIQDPKNNRIAQWQNFNLEGGLKQLSFPLSSEPTQGSYKVVIRTESGRTVEHPFSVEEFVLPKFEVRVTVPETITILEEEMNVSVCGIYTYGKPVPGRVTVNICRKYSNPSNCFGEESVAFCEKLSQQLDGRGCFSQLVKTKSFQLKRQEYEMQLDVHAKIQEEGTGVEETGKGLTKITRTITKLSFVNVDSHFRQGIPFVGQVLLVDGRGTPIPYETIFIGADEANLYINTTTDKHGLARFSINTDDIMGTSLTVRAKYKDSNACYGFRWLTEENVEAWHTAYAVFSPSRSFLHLESLPDKLRCDQTLEVQAHYILNGEAMQELKELVFYYLMMAKGGIVRAGTHVLPLKQGQMRGHFSILISMETDLAPVARLVLYAILPNGEVVGDTAKYEIENCLANKVDLVFRPNSGLPATRALLSVMASPQSLCGLRAVDQSVLLMKPETELSASLIYDLLPVKDLTGFPQGADQREEDTNGCVKQNDTYINGILYSPVQNTNEEDMYGFLKDMGLKVFTNSNIRKPKVCERLRDNKGIPAAYHLVSQSHMDAFLESSESPTETRRSYFPETWIWDLVVVDSAGVAEVEVTVPDTITEWKAGAFCLSNDTGLGLSPVVQFQAFQPFFVELTMPYSVIRGEAFTLKATVLNYLPTCIRVAVQLEASPDFLAAPEEKEQRSHCICMNQRHTASWAVIPKSLGNVNFTVSAEALNSKELCGNEVPVVPEQGKKDTIIKSLLVEPEGLENEVTFNSLLCPMGAEVSELIALKLPSDVVEESARASVTVLGDILGSAMQNTQDLLKMPYGCGEQNMVLFAPNIYVLDYLNETQQLTQEIKTKAIAYLNTGYQRQLNYKHRDGSYSTFGDKPGRNHANTWLTAFVLKSFAQARKYIFIDEVHITQALLWLSQQQKDNGCFRSSGSLLNNAMKGGVEDEVTLSAYITIALLEMSLPVTHPVVRNALFCLDTAWKSARGGAGGSHVYTKALLAYAFALAGNQDTKKEILKSLDEEAVKEEDSVHWTRPQKPSVSVALWYQPQAPSAEVEMTAYVLLAYLTTEPAPTQEDLTAAMLIVKWLTKQQNSHGGFSSTQDTVVALHALSKYGSATFTRAKKAAQVTIHSSGTFSTKFQVNNNNQLLLQRVTLPTVPGDYTVKVTGEGCVYLQTSLKYSVLPREEEFPFTVVVQTLPGTCEDPKAHTSFQISLNISYTGSRSESNMAIADVKMVSGFIPLKPTVKMLERSVHVSRTEVSNNHVLIYLDKVSNQTVNLSFTVQQDIPIRDLKPAVVKVYDYYEKDEFAVAKYSAPCSTDYGNA
# System: Rat Retina
# Protocol: The following experiment was conducted in order to assess changes in gene expression induced in the retina after intraocular injection of α2 macroglobulin protein. 2 μg of α2 macroglobulin protein was intraocularly injected into the right eye of rats (n=3) and the left eye was used as a control. One rat was tested at Day 3, one rat was tested at Day 7 and one rat was tested at Day 14. Retinas were isolated and mRNA was collected. Samples from each of the rats were studied by gene microassays. Retinas were carefully dissected out to insure that only retinal mRNAs were prepared for gene microarray studies. Samples were obtained from control eyes.
# Total RNA was isolated from retinal tissue using TRIZOL® (Life Technologies). RNA was then further purified using the RNAEASY® (QIAGEN®). The integrity of the RNA samples was assessed by running aliquots on RNA 6000 Nano LabChip (Agilent) using the 2100 bioanalyzer (Agilent).
# Probe synthesis, hybridization and scanning were done according to Affymetrix protocol, as a service at the McGill University and Genome Quebec Innovation Centre. For the experiments shown, Rat U34 Genome Arrays (8,700 genes, Affymetrix) were used. Briefly, RNA samples were first converted to double stranded cDNA (T7-(dT)24 primer (Genset)). Then the cDNAs were purified and used to generate the biotinylated cRNA probes (Bioarray High Yield RNA transcript labeling kit (Enzo diagnostics)). An aliquot of the purified cRNA was analyzed on RNA 6000 Nano LabChip (Agilent) to verify the integrity and size distribution. Immediately after hybridization the chip was placed in the Affymetrix GeneChip Fluidics Station 400 (Affymetrix). In total, 10 low-stringency washes (63 SSPE, 0.01% Tween-20, 0.005% Antifoam) and 4 high-stringency washes (100 mM MES, 0.1 M NaCl, 0.01% Tween-20, 50 C) were performed (all reagents from Sigma). The array was then incubated with SAPE® (streptavidin/phycoerythrin stain, Molecular Probes), followed by 10 low stringency washes. The array was incubated with biotinylated anti-streptavidin antibody (Vector Laboratories) and washed again with 15 low stringency washes. Specifically bound probe was detected by placing the array in the Agilent GeneArray scanner 2500 (Affymetrix). The scanned images were analyzed using the Microarray Analysis Suite version 5.0 (Affymetrix).
# The fold change was analyzed by […] data for the control eye from the data on the eye injected with α2 macroglobulin. A fold change of 2 or greater indicates upregulation. A fold of 0.5 to 2 indicates no change. A fold change of 0.5 or less indicates downregulation.
# [1] = gene complexin 2 (1368584_a_at)
# [2] = gene crystallin, beta A2 (1388385_at)
# [3] = gene crystallin, beta B1 (1369985_at)
# [4] = gene crystallin, beta B2 (1367684_at)
# [5] = gene crystallin, beta B3 (1367990_at)
# [6] = gene crystallin, gamma N (predicted) (1384241_at)
# [7] = gene death effector domain-containing (1369003_at)
# [8] = gene fibrinogen-like 2 (1392894_at)
# [9] = gene forkhead box E3 (1370797_at)
# [10] = gene glycoprotein 2 (zymogen granule membrane) (1386933_at)
# [11] = gene glycoprotein (transmembrane) nmb (1368187_at)
# [12] = gene guanylate nucleotide binding protein 2 (1368332_at)
# [13] = gene interferon induced transmembrane protein 1 (predicted) (1372013_at)
# [14] = gene lens intrinsic membrane protein 2 (1368493_at)
# [15] = gene membrane metallo endopeptidase (1370072_at)
# [16] = gene membrane-spanning 4-domains, subfamily A, member 6B (1390510_at)
# [17] = gene procollagen, type III, alpha 1 (1370959_at)
# [18] = gene procollagen, type IV, alpha 1 (1372439_at)
# [19] = gene procollagen, type IV, alpha 1 (1373245_at)
# [20] = gene serine (or cysteine) peptidase inhibitor, clade G, member 1 (1372254_at)
# [21] = gene similar to Beta crystallin S (Gamma crystallin S) (1388435_at)
# [22] = gene similar to FRBZ1 protein (FRBZ1) (predicted) (1398217_at)
# [23] = gene similar to Phakinin (Beaded filament structural protein 2) (1383812_at)
# [24] = gene similar to RCK (predicted) (1389868_at)
# [25] = gene similar to RIKEN cDNA 1300010M03 (predicted) (1376087_at)
# [26] = gene similar to RIKEN cDNA 1500009M05 (predicted) (1382193_at)
# [27] = gene similar to RIKEN cDNA 4930555G01 (predicted) (1391152_at)
# [28] = gene similar to RNA-binding protein Musashi2-S (predicted) (1390813_at)
# [29] = gene similar to keratin complex 2, basic, gene 6a (1373349_at)
# [30] = gene similar to mKIAA1450 protein (predicted) (1391315_at)
# [31] = gene similar to serine (or cysteine) proteinase inhibitor (1388746_at)
# [32] = gene solute carrier family 6 (neurotransmitter transporter, GABA) (1369715_at)
# [33] = gene solute carrier family 6 (neurotransmitter transporter, taurine) (1368778_at)
# [34] = gene spectrin alpha 1 (1386212_at)
molecule,measurement,setting,value
B1,Fold Change (α2m vs normal) Day 7,gene complement factor B (1389470_at),3.3
same,Fold Change (α2m vs normal) Day 3,[1],0.5
same,Fold Change (α2m vs normal) Day 7,[1],0.2
same,Fold Change (α2m vs normal) Day 3,[2],0.5
same,Fold Change (α2m vs normal) Day 7,[2],3.6
same,Fold Change (α2m vs normal) Day 14,[2],2.0
same,Fold Change (α2m vs normal) Day 3,[3],0.5
same,Fold Change (α2m vs normal) Day 7,[3],3.4
same,Fold Change (α2m vs normal) Day 14,[3],2.0
same,Fold Change (α2m vs normal) Day 3,[4],0.4
same,Fold Change (α2m vs normal) Day 7,[4],3.7
same,Fold Change (α2m vs normal) Day 14,[4],2.2
same,Fold Change (α2m vs normal) Day 3,[5],0.4
same,Fold Change (α2m vs normal) Day 7,[5],4.2
same,Fold Change (α2m vs normal) Day 14,[5],2.0
same,Fold Change (α2m vs normal) Day 3,[6],0.5
same,Fold Change (α2m vs normal) Day 7,[6],3.9
same,Fold Change (α2m vs normal) Day 3,[7],0.5
same,Fold Change (α2m vs normal) Day 7,[7],0.4
same,Fold Change (α2m vs normal) Day 3,gene decorin (1370956_at),3.7
same,Fold Change (α2m vs normal) Day 7,gene decorin (1370956_at),12.6
same,Fold Change (α2m vs normal) Day 3,[8],2.1
same,Fold Change (α2m vs normal) Day 7,[8],2.1
same,Fold Change (α2m vs normal) Day 3,[9],0.4
same,Fold Change (α2m vs normal) Day 7,[9],2.9
same,Fold Change (α2m vs normal) Day 14,[9],2.2
same,Fold Change (α2m vs normal) Day 3,[10],0.5
same,Fold Change (α2m vs normal) Day 7,[10],2.1
same,Fold Change (α2m vs normal) Day 3,[11],3.9
same,Fold Change (α2m vs normal) Day 7,[11],7.4
same,Fold Change (α2m vs normal) Day 3,[12],2.2
same,Fold Change (α2m vs normal) Day 7,[12],2.1
same,Fold Change (α2m vs normal) Day 3,[13],5.8
same,Fold Change (α2m vs normal) Day 7,[13],4.2
same,Fold Change (α2m vs normal) Day 3,[14],0.5
same,Fold Change (α2m vs normal) Day 7,[14],2.5
same,Fold Change (α2m vs normal) Day 3,gene lumican (1367749_at),6.1
same,Fold Change (α2m vs normal) Day 7,gene lumican (1367749_at),4.1
same,Fold Change (α2m vs normal) Day 14,gene lumican (1367749_at),0.4
same,Fold Change (α2m vs normal) Day 3,gene lysozyme (1370154_at),7.8
same,Fold Change (α2m vs normal) Day 7,gene lysozyme (1370154_at),2.8
same,Fold Change (α2m vs normal) Day 3,[15],0.5
same,Fold Change (α2m vs normal) Day 7,[15],5.3
same,Fold Change (α2m vs normal) Day 14,[15],2.2
same,Fold Change (α2m vs normal) Day 3,[16],5.1
same,Fold Change (α2m vs normal) Day 7,[16],2.1
same,Fold Change (α2m vs normal) Day 3,[17],3.7
same,Fold Change (α2m vs normal) Day 7,[17],3.4
same,Fold Change (α2m vs normal) Day 3,[18],0.3
same,Fold Change (α2m vs normal) Day 7,[18],17.5
same,Fold Change (α2m vs normal) Day 14,[18],2.4
same,Fold Change (α2m vs normal) Day 3,[19],0.3
same,Fold Change (α2m vs normal) Day 7,[19],13.2
same,Fold Change (α2m vs normal) Day 14,[19],2.3
same,Fold Change (α2m vs normal) Day 3,[20],3.0
same,Fold Change (α2m vs normal) Day 7,[20],3.3
same,Fold Change (α2m vs normal) Day 3,[21],0.5
same,Fold Change (α2m vs normal) Day 7,[21],2.8
same,Fold Change (α2m vs normal) Day 14,[21],2.9
same,Fold Change (α2m vs normal) Day 3,[22],0.5
same,Fold Change (α2m vs normal) Day 7,[22],0.2
same,Fold Change (α2m vs normal) Day 3,[23],0.4
same,Fold Change (α2m vs normal) Day 7,[23],2.7
same,Fold Change (α2m vs normal) Day 3,[24],0.5
same,Fold Change (α2m vs normal) Day 7,[24],0.2
same,Fold Change (α2m vs normal) Day 3,[25],0.5
same,Fold Change (α2m vs normal) Day 7,[25],0.4
same,Fold Change (α2m vs normal) Day 3,[26],0.4
same,Fold Change (α2m vs normal) Day 7,[26],0.2
same,Fold Change (α2m vs normal) Day 3,[27],2.0
same,Fold Change (α2m vs normal) Day 7,[27],5.6
same,Fold Change (α2m vs normal) Day 3,[28],0.5
same,Fold Change (α2m vs normal) Day 7,[28],0.2
same,Fold Change (α2m vs normal) Day 3,[29],7.3
same,Fold Change (α2m vs normal) Day 7,[29],0.4
same,Fold Change (α2m vs normal) Day 3,[30],0.5
same,Fold Change (α2m vs normal) Day 7,[30],0.2
same,Fold Change (α2m vs normal) Day 3,[31],0.4
same,Fold Change (α2m vs normal) Day 7,[31],2.6
same,Fold Change (α2m vs normal) Day 3,[32],0.5
same,Fold Change (α2m vs normal) Day 7,[32],0.4
same,Fold Change (α2m vs normal) Day 3,[33],0.5
same,Fold Change (α2m vs normal) Day 7,[33],0.2
same,Fold Change (α2m vs normal) Day 14,[33],2.3
same,Fold Change (α2m vs normal) Day 3,[34],0.5
same,Fold Change (α2m vs normal) Day 7,[34],2.1
same,Fold Change (α2m vs normal) Day 3,"gene — (1393766_at, AI112375)",0.4
same,Fold Change (α2m vs normal) Day 7,"gene — (1393766_at, AI112375)",0.3
same,Fold Change (α2m vs normal) Day 14,"gene — (1393766_at, AI112375)",3.6
same,Fold Change (α2m vs normal) Day 3,"gene — (1394837_at, BF405797)",0.3
same,Fold Change (α2m vs normal) Day 7,"gene — (1394837_at, BF405797)",0.2
same,Fold Change (α2m vs normal) Day 3,"gene — (1395129_at, BE107340)",0.5
same,Fold Change (α2m vs normal) Day 7,"gene — (1395129_at, BE107340)",0.3
